These results are taken from PMC10908828.

Assay [1] has as its target human full-length RAF1 (residues 1-648) with C-terminal His6 (human) (UniProt P04049). The experiment in a line: mass photometry; purified RAF1-HSP90-CDC37 complex.
For assay [2], the target named is insect HSP90 from Trichoplusia ni (Trichoplusia ni (endogenous in Tni-FNL cells)). Description: mass photometry; purified RAF1-HSP90-CDC37 complex.

As a reminder, the stoichiometry N is the number of molecules, sites or subunits per partner or assembly.

In the case of “insect HSP90 from Trichoplusia ni (natural protein)”, the stoichiometry N in assay [1] and in assay [2] was 2 each time.
